Assay results taken from paper PMC5727386.

Legend:
[1] = biological target: Tyrosine phosphatase Sts1, Q8BGG7; assay: co-immunoprecipitation (anti-Bcr-Abl/Abl IP, Sts1 immunoblot, quantified); conditions: chain shown with the change; BaF3 cells stably transduced with the Bcr-Abl variants; parent: est. 1.0; read off a plot
[2] = biological target: monobody Mb(Bcr-PH_4), displayed on yeast surface; assay: flow cytometry on cells; monobody displayed on yeast surface; biotinylated target 10 nM to 1 uM in TBS with 0.1% BSA, 30 min at RT; streptavidin-DyLight650; 1:1 binding model; apparent Kd

Tyrosine phosphatase Sts1, Q8BGG7, sequence (Q8BGG7 whole entry): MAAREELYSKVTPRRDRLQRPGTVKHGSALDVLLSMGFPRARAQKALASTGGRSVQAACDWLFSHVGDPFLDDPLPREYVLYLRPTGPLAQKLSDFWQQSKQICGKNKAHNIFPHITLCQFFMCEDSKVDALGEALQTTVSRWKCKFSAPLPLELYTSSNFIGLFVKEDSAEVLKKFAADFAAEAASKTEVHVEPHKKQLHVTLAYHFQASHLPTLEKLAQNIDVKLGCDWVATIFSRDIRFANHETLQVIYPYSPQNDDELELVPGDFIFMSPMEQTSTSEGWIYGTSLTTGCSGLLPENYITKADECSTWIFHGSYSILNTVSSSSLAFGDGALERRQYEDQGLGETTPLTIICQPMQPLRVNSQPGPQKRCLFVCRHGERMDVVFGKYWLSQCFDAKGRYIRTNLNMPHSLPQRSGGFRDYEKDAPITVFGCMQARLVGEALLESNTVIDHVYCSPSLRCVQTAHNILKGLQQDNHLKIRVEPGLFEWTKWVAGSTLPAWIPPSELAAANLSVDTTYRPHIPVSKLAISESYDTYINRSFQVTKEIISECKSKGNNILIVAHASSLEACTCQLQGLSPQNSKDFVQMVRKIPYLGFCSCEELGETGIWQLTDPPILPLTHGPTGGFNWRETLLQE

| Binder | ratio to parent [1] | Kd [2] |
| --- | --- | --- |
| Bcr-Abl p210, P11274 R726A (protein) MVDPVGFAEAWKAQFPDSEPPRMELRSVGDIEQELERCKASIRRLEQEVNQERFRMIYLQTLLAKEKKSYDRQRWGFRRAAQAPDGASEPRASASRPQPAPADGADPPPAEEPEARPDGEGSPGKARPGTARRPGAAASGERDDRGPPASVAALRSNFERIRKGHGQPGADAEKPFYVNVEFHHERGLVKVNDKEVSDRISSLGSQAMQMERKKSQHGAGSSVGDASRPPYRGRSSESSCGVDGDYEDAELNPRFLKDNLIDANGGSRPPWPPLEYQPYQSIYVGGMMEGEGKGPLLRSQSTSEQEKRLTWPRRSYSPRSFEDCGGGYTPDCSSNENLTSSEEDFSSGQSSRVSPSPTTYRMFRDKSRSPSQNSQQSFDSSSPPTPQCHKRHRHCPVVVSEATIVGVRKTGQIWPNDGEGAFHGDADGSFGTPPGYGCAADRAEEQRRHQDGLPYIDDSPSSSPHLSSKGRGSRDALVSGALESTKASELDLEKGLEMRKWVLSGILASEETYLSHLEALLLPMKPLKAAATTSQPVLTSQQIETIFFKVPELYEIHKEFYDGLFPRVQQWSHQQRVGDLFQKLASQLGVYRAFVDNYGVAMEMAEKCCQANAQFAEISENLRARSNKDAKDPTTKNSLETLLYKPVDRVTRSTLVLHDLLKHTPASHPDHPLLQDALRISQNFLSSINEEITPRRQSMTVKKGEHRQLLKDSFMVELVEGARKLAHVFLFTDLLLCTKLKKQSGGKTQQYDCKWYIPLTDLSFQMVDELEAVPNIPLVPDEELDALKIKISQIKNDIQREKRANKGSKATERLKKKLSEQESLLLLMSPSMAFRVHSRNGKSYTFLISSDYERAEWRENIREQQKKCFRSFSLTSVELQMLTNSCVKLQTVHSIPLTINKEDDESPGLYGFLNVIVHSATGFKQSSNLYCTLEVDSFGYFVNKAKTRVYRDTAEPNWNEEFEIELEGSQTLRILCYEKCYNKTKIPKEDGESTDRLMGKGQVQLDPQALQDRDWQRTVIAMNGIEVKLSVKFNSREFSLKRMPSRKQTGVFGVKIAVVTKRERSKVPYIVRQCVEEIERRGMEEVGIYRVSGVATDIQALKAAFDVNNKDVSVMMSEMDVNAIAGTLKLYFRELPEPLFTDEFYPNFAEGIALSDPVAKESCMLNLLLSLPEANLLTFLFLLDHLKRVAEKEAVNKMSLHNLATVFGPTLLRPSEKESKLPANPSQPITMTDSWSLEVMSQVQVLLYFLQLEAIPAPDSKRQSILFSTEV | 0.34 |  |
| Bcr-Abl p210, P11274 R723A; K724A (protein) MVDPVGFAEAWKAQFPDSEPPRMELRSVGDIEQELERCKASIRRLEQEVNQERFRMIYLQTLLAKEKKSYDRQRWGFRRAAQAPDGASEPRASASRPQPAPADGADPPPAEEPEARPDGEGSPGKARPGTARRPGAAASGERDDRGPPASVAALRSNFERIRKGHGQPGADAEKPFYVNVEFHHERGLVKVNDKEVSDRISSLGSQAMQMERKKSQHGAGSSVGDASRPPYRGRSSESSCGVDGDYEDAELNPRFLKDNLIDANGGSRPPWPPLEYQPYQSIYVGGMMEGEGKGPLLRSQSTSEQEKRLTWPRRSYSPRSFEDCGGGYTPDCSSNENLTSSEEDFSSGQSSRVSPSPTTYRMFRDKSRSPSQNSQQSFDSSSPPTPQCHKRHRHCPVVVSEATIVGVRKTGQIWPNDGEGAFHGDADGSFGTPPGYGCAADRAEEQRRHQDGLPYIDDSPSSSPHLSSKGRGSRDALVSGALESTKASELDLEKGLEMRKWVLSGILASEETYLSHLEALLLPMKPLKAAATTSQPVLTSQQIETIFFKVPELYEIHKEFYDGLFPRVQQWSHQQRVGDLFQKLASQLGVYRAFVDNYGVAMEMAEKCCQANAQFAEISENLRARSNKDAKDPTTKNSLETLLYKPVDRVTRSTLVLHDLLKHTPASHPDHPLLQDALRISQNFLSSINEEITPRRQSMTVKKGEHRQLLKDSFMVELVEGAAALRHVFLFTDLLLCTKLKKQSGGKTQQYDCKWYIPLTDLSFQMVDELEAVPNIPLVPDEELDALKIKISQIKNDIQREKRANKGSKATERLKKKLSEQESLLLLMSPSMAFRVHSRNGKSYTFLISSDYERAEWRENIREQQKKCFRSFSLTSVELQMLTNSCVKLQTVHSIPLTINKEDDESPGLYGFLNVIVHSATGFKQSSNLYCTLEVDSFGYFVNKAKTRVYRDTAEPNWNEEFEIELEGSQTLRILCYEKCYNKTKIPKEDGESTDRLMGKGQVQLDPQALQDRDWQRTVIAMNGIEVKLSVKFNSREFSLKRMPSRKQTGVFGVKIAVVTKRERSKVPYIVRQCVEEIERRGMEEVGIYRVSGVATDIQALKAAFDVNNKDVSVMMSEMDVNAIAGTLKLYFRELPEPLFTDEFYPNFAEGIALSDPVAKESCMLNLLLSLPEANLLTFLFLLDHLKRVAEKEAVNKMSLHNLATVFGPTLLRPSEKESKLPANPSQPITMTDSWSLEVMSQVQVLLYFLQLEAIPAPDSKRQSILFSTEV | 0.53 |  |
| biotinylated Bcr-Abl PH domain (Avi-tag) (domain or fragment, biotin on the Avi-tag) GEHRQLLKDSFMVELVEGARKLRHVFLFTDLLLCTKLKKQSGGKTQQYDCKWYIPLTDLSFQMVDELEAVPNIPLVPDEELDALKIKISQIKNDIQREKRANKGSKATERLKKKLSEQESLLLLMSPSMAFRVHSRNGKSYTFLISSDYERAEWRENIREQQKKCFRSFSLTSVELQMLTNSCVKLQTVH |  | 33 nM |
